Each block holds one binder with its values, some of them ahead of it. Where no end group is shown, it is not given here.
How the values were obtained:
Details in all cases: both partners purified
[1] = target: T1, biotinylated SNAP25 (UniProt P60880 1-206, biotin (site not stated)); assay: AlphaScreen or HTRF; competition: Gγ peptides 1 nM-100 μM; 20 nM biotinylated SNAP25 on streptavidin donor beads, 180 nM His6-Gβ1γ2 on nickel chelate acceptor beads; 20 mM HEPES pH 7.0, 10 mM NaCl, 40 mM KCl, 5% glycerol, 0.01% Triton X-100; 27 °C
T1 construct: SNAP25, wild type; also called full-length SNAP25; synaptosomal-associated protein-25; source: expressed and purified as described (12, 39)

[2] = target: T2, His-tagged soluble Gβ1γ2 (C68S) (UniProt P62873 1-340; P59768 1-71, C68S); assay: AlphaScreen or HTRF; competition: SNAP25 C-terminal peptide (189-206) against biotinylated full-length SNAP25 for His6-Gβ1γ2
T2 construct: G-protein subunit β1 (Gβ1); G-protein subunit γ2 (Gγ2) with C68S (soluble); it is entered on Gβ1; For MST the His tag was labelled with Red-tris-NTA; also called full-length Gβ1γ2; His6-Gβ1γ2; source: Sf9 cells, purified as previously described (69)

[3] = target: T3, His-tagged soluble Gβ1γ2 (C68S) (UniProt P62873;P59768, C68S); assay: AlphaScreen or HTRF; competition: Nb5 0.4 nM-1.26 μM; biotinylated SNAP25 with an EC80 concentration of His-tagged Gβ1γ2
T3 construct: G-protein subunit β1 (Gβ1); G-protein subunit γ2 (Gγ2) with C68S (soluble); it is entered on Gβ1; For MST the His tag was labelled with Red-tris-NTA; also called full-length Gβ1γ2; His6-Gβ1γ2; source: Sf9 cells, purified as previously described (69)

[4] = target: T3, His-tagged soluble Gβ1γ2 (C68S); assay: AlphaScreen or HTRF; direct binding: 20 nM biotinylated Nb5 with 0.1 nM-1 μM His-tagged Gβ1γ2; concentration-response curves fitted for EC50

IC50 [1]: 4.04 µM
B1: Gγ3, res. 13–27 peptide (peptide)
peptide: IGQARKMVEQLKIEA
modifications: also: C-terminus coupled to the membrane
notes: Gγ3, human, residues 13-27; source: synthetic peptide: SPOT array on membrane (ResPep SL)

IC50 [1]: 1.72 µM
B2: Gγ5, res. 49–63 peptide (peptide)
peptide: LTGVSSSTNPFRPQK
modifications: on the array: C-terminus coupled to the membrane
notes: Gγ5, human, residues 49-63; source: synthetic peptide: SPOT array on membrane (ResPep SL)

IC50 [1]: 9.46 µM
B3: Gγ13, res. 16–30 peptide (peptide)
peptide: LKYQLAFQREMASKT
modifications: on the array: C-terminus coupled to the membrane
notes: Gγ13, human, residues 16-30; source: synthetic peptide: SPOT array on membrane (ResPep SL)

IC50 [1]: 0.64 µM
B4: Gγ8, res. 52–66 peptide (peptide)
peptide: PVPAAENPFRDKRLF
modifications: on the array: C-terminus coupled to the membrane
notes: Gγ8, human, residues 52-66; source: synthetic peptide: SPOT array on membrane (ResPep SL)

IC50 [1]: 2.91 µM
B5: Gγ12, res. 7–21 peptide (peptide)
peptide: STNNIAQARRTVQQL
modifications: on the array: C-terminus coupled to the membrane
notes: Gγ12, human, residues 7-21; source: synthetic peptide: SPOT array on membrane (ResPep SL)

IC50 [2]: 1.84 µM
Binder: KTRIDEANQRATKMLGSG (peptide, UniProt P60880 189-206, looked up, also called C-terminal SNAP25 peptide) [SNAP25 C-terminal peptide (residues 189–206)]

IC50 [3]: 0.0246 µM
B6: Nanobody-5 (Nb5) (VHH)
VHH: QVQLVESGGGLVQAGGSLRLSCAASGSIFSINAMGWYRQAPGKQRELVAAITRGGRTNYADSVKGRFTLSRDNAKNTVYLQMNSLKPEDTAVYYCNVGRSRGYWGQGTQVTVSS
notes: as the chain of m17; source: expressed and purified as described previously (53); plasmid a gift of the Palczewski laboratory

EC50 [4]: 0.00372 µM
B7: biotinylated Nb5 (VHH)
VHH: B6 VHH
notes: also called Nanobody-5; source: expressed and purified as described previously (53); plasmid a gift of the Palczewski laboratory

IC50 [1]: 0.43 µM
B8: Gγ10, res. 4–18 peptide (peptide)
peptide: GASASALQRLVEQLK
modifications: on the array: C-terminus coupled to the membrane
notes: Gγ10, human, residues 4-18; source: synthetic peptide: SPOT array on membrane (ResPep SL)

IC50 [1]: 0.54 µM
B9: Gγ2, res. 1–15 peptide (peptide)
peptide: MASNNTASIAQARKL
modifications: on the array: C-terminus coupled to the membrane
notes: Gγ2, human, residues 1-15; also called Gγ2 N-terminal peptide; Gγ2 amino-terminal peptide; source: synthetic peptide: SPOT array on membrane (ResPep SL)

IC50 [1]: > 100 µM
B10: Gγ1, res. 1–15 peptide (peptide)
peptide: MPVINIEDLTEKDKL
notes: Gγ1, human, residues 1-15; also called Gγ1 N-terminal peptide; source: peptide stock in DMSO

IC50 [1]: 7.01 µM
B11: Gγ3, res. 56–70 peptide (peptide)
peptide: ITPVPTSENPFREKK
modifications: on the array: C-terminus coupled to the membrane
notes: Gγ3, human, printed as residues 56-70; source: synthetic peptide: SPOT array on membrane (ResPep SL)

IC50 [1]: 12.6 µM
B12: Gγ2, res. 52–66 peptide (peptide)
peptide: TPVPASENPFREKKF
modifications: on the array: C-terminus coupled to the membrane
notes: Gγ2, human, residues 52-66; also called Gγ2 peptide 18 (by the array's scheme of 15-mers shifted by three); source: synthetic peptide: SPOT array on membrane (ResPep SL)
